Test results as given in publication PMC11303871 (The Journal of Cell Biology, 2024).

Target: T1, 3xFlag::CYB-3 (in situ-tagged cyclin B3) (C. elegans, UniProt Q10654 1-385)
T1 sequence: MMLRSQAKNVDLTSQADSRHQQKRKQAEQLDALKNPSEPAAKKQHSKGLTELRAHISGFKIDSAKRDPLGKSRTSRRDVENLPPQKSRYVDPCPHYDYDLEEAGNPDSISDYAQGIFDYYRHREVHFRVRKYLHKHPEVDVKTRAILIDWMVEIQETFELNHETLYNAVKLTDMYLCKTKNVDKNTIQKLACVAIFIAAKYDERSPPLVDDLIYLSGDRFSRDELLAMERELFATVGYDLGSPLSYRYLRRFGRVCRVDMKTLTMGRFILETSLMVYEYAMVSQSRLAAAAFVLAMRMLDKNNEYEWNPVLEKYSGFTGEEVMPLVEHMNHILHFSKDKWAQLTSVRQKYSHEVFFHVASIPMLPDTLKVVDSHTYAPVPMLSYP
Test: co-IP

B1: CDK-1 (C. elegans Cdk1), endogenous (enzyme)
chain: not shown
- amount of CDK-1 bound relative to CYB-1: ~1.3 times

B2: CDK-1 phosphorylated at T179 (pT179 CDK-1), endogenous (enzyme)
chain: not shown
modifications: phosphothreonine at 179 (pT179)
- amount of pT179 CDK-1 bound relative to CYB-1: ~1.3 fold

B3: CDK-1 phosphorylated at Y33 (pY33 CDK-1), endogenous (enzyme)
chain: not shown
modifications: phosphotyrosine at 33 (pY33)
- amount of pY33 CDK-1 bound relative to CYB-1: ~1.3 fold
